Experimental findings from patent US11242370B2, “Neuregulin-4 compounds and methods of use” (Eli Lilly and Company, priority 2019, dated 2022) are described below.

First the molecules themselves.
B1: Example 3: NRG4 D1G/V22Q, (GGGGS)3 linker, SEQ ID NO: 12, fused to IgG Fc dimer SEQ ID NO: 6 and 7 (protein)
chain 1: GGGGSGGGGSGGGGSGHEEPCGPSHKSFCLNGGLCYQIPTIPSPFCRCVENYTGARCEEVFL
chain 2: ECPPCPAPPVAGPSVFLFPPKPKDTLMISRTPEVTCVVVDVSHEDPEVQFNWYVDGVEVHNAKTKPREEQFNSTFRVVSVLTVVHQDWLNGKEYKCKVSNKGLPAPIEKTISKTKGQPREPQVYTLPPSREEMTKNQVSLWCLVKGFYPSDIAVEWESNGQPENNYKTTPPVLDSDGSFFLYSKLTVDKSRWQQGNVFSCSVMHEALHNHYTQKSLSLSPG
chain 3: ECPPCPAPPVAGPSVFLFPPKPKDTLMISRTPEVTCVVVDVSHEDPEVQFNWYVDGVEVHNAKTKPREEQFNSTFRVVSVLTVVHQDWLNGKEYKCKVSNKGLPAPIEKTISKTKGQPREPQVYTLPPSREEMTKNQVSLSCAVKGFYPSDIAVEWESNGQPENNYKTTPPVLDSDGSFFLVSKLTVDKSRWQQGNVFSCSVMHEALHNHYTQKSLSLSPG
B2: Example 4: NRG4 D1G/I26F, (GGGGS)3 linker, SEQ ID NO: 13, fused to IgG Fc dimer SEQ ID NO: 6 and 7 (protein)
chain 1: GGGGSGGGGSGGGGSGHEEPCGPSHKSFCLNGGLCYVIPTFPSPFCRCVENYTGARCEEVFL
chain 2: ECPPCPAPPVAGPSVFLFPPKPKDTLMISRTPEVTCVVVDVSHEDPEVQFNWYVDGVEVHNAKTKPREEQFNSTFRVVSVLTVVHQDWLNGKEYKCKVSNKGLPAPIEKTISKTKGQPREPQVYTLPPSREEMTKNQVSLWCLVKGFYPSDIAVEWESNGQPENNYKTTPPVLDSDGSFFLYSKLTVDKSRWQQGNVFSCSVMHEALHNHYTQKSLSLSPG
chain 3: ECPPCPAPPVAGPSVFLFPPKPKDTLMISRTPEVTCVVVDVSHEDPEVQFNWYVDGVEVHNAKTKPREEQFNSTFRVVSVLTVVHQDWLNGKEYKCKVSNKGLPAPIEKTISKTKGQPREPQVYTLPPSREEMTKNQVSLSCAVKGFYPSDIAVEWESNGQPENNYKTTPPVLDSDGSFFLVSKLTVDKSRWQQGNVFSCSVMHEALHNHYTQKSLSLSPG
B3: Example 5: NRG4 D1G/E35A, (GGGGS)3 linker, SEQ ID NO: 14, fused to IgG Fc dimer SEQ ID NO: 6 and 7 (protein)
chain 1: GGGGSGGGGSGGGGSGHEEPCGPSHKSFCLNGGLCYVIPTIPSPFCRCVANYTGARCEEVFL
chain 2: ECPPCPAPPVAGPSVFLFPPKPKDTLMISRTPEVTCVVVDVSHEDPEVQFNWYVDGVEVHNAKTKPREEQFNSTFRVVSVLTVVHQDWLNGKEYKCKVSNKGLPAPIEKTISKTKGQPREPQVYTLPPSREEMTKNQVSLWCLVKGFYPSDIAVEWESNGQPENNYKTTPPVLDSDGSFFLYSKLTVDKSRWQQGNVFSCSVMHEALHNHYTQKSLSLSPG
chain 3: ECPPCPAPPVAGPSVFLFPPKPKDTLMISRTPEVTCVVVDVSHEDPEVQFNWYVDGVEVHNAKTKPREEQFNSTFRVVSVLTVVHQDWLNGKEYKCKVSNKGLPAPIEKTISKTKGQPREPQVYTLPPSREEMTKNQVSLSCAVKGFYPSDIAVEWESNGQPENNYKTTPPVLDSDGSFFLVSKLTVDKSRWQQGNVFSCSVMHEALHNHYTQKSLSLSPG
B4: Example 2: NRG4 D1G/P8E, (GGGGS)3 linker, SEQ ID NO: 11, fused to IgG Fc dimer SEQ ID NO: 6 and 7 (protein)
chain 1: GGGGSGGGGSGGGGSGHEEPCGESHKSFCLNGGLCYVIPTIPSPFCRCVENYTGARCEEVFL
chain 2: ECPPCPAPPVAGPSVFLFPPKPKDTLMISRTPEVTCVVVDVSHEDPEVQFNWYVDGVEVHNAKTKPREEQFNSTFRVVSVLTVVHQDWLNGKEYKCKVSNKGLPAPIEKTISKTKGQPREPQVYTLPPSREEMTKNQVSLWCLVKGFYPSDIAVEWESNGQPENNYKTTPPVLDSDGSFFLYSKLTVDKSRWQQGNVFSCSVMHEALHNHYTQKSLSLSPG
chain 3: ECPPCPAPPVAGPSVFLFPPKPKDTLMISRTPEVTCVVVDVSHEDPEVQFNWYVDGVEVHNAKTKPREEQFNSTFRVVSVLTVVHQDWLNGKEYKCKVSNKGLPAPIEKTISKTKGQPREPQVYTLPPSREEMTKNQVSLSCAVKGFYPSDIAVEWESNGQPENNYKTTPPVLDSDGSFFLVSKLTVDKSRWQQGNVFSCSVMHEALHNHYTQKSLSLSPG
B5: Example 6: NRG4 D1G/I26F/E44K, (GGGGS)3 linker, SEQ ID NO: 15, fused to IgG Fc dimer SEQ ID NO: 6 and 7 (protein)
chain 1: GGGGSGGGGSGGGGSGHEEPCGPSHKSFCLNGGLCYVIPTFPSPFCRCVENYTGARCEKVFL
chain 2: ECPPCPAPPVAGPSVFLFPPKPKDTLMISRTPEVTCVVVDVSHEDPEVQFNWYVDGVEVHNAKTKPREEQFNSTFRVVSVLTVVHQDWLNGKEYKCKVSNKGLPAPIEKTISKTKGQPREPQVYTLPPSREEMTKNQVSLWCLVKGFYPSDIAVEWESNGQPENNYKTTPPVLDSDGSFFLYSKLTVDKSRWQQGNVFSCSVMHEALHNHYTQKSLSLSPG
chain 3: ECPPCPAPPVAGPSVFLFPPKPKDTLMISRTPEVTCVVVDVSHEDPEVQFNWYVDGVEVHNAKTKPREEQFNSTFRVVSVLTVVHQDWLNGKEYKCKVSNKGLPAPIEKTISKTKGQPREPQVYTLPPSREEMTKNQVSLSCAVKGFYPSDIAVEWESNGQPENNYKTTPPVLDSDGSFFLVSKLTVDKSRWQQGNVFSCSVMHEALHNHYTQKSLSLSPG
B6: Example 7: NRG4 D1G/I26F/E44H, (GGGGS)3 linker, SEQ ID NO: 16, fused to IgG Fc dimer SEQ ID NO: 6 and 7 (protein)
chain 1: GGGGSGGGGSGGGGSGHEEPCGPSHKSFCLNGGLCYVIPTFPSPFCRCVENYTGARCEHVFL
chain 2: ECPPCPAPPVAGPSVFLFPPKPKDTLMISRTPEVTCVVVDVSHEDPEVQFNWYVDGVEVHNAKTKPREEQFNSTFRVVSVLTVVHQDWLNGKEYKCKVSNKGLPAPIEKTISKTKGQPREPQVYTLPPSREEMTKNQVSLWCLVKGFYPSDIAVEWESNGQPENNYKTTPPVLDSDGSFFLYSKLTVDKSRWQQGNVFSCSVMHEALHNHYTQKSLSLSPG
chain 3: ECPPCPAPPVAGPSVFLFPPKPKDTLMISRTPEVTCVVVDVSHEDPEVQFNWYVDGVEVHNAKTKPREEQFNSTFRVVSVLTVVHQDWLNGKEYKCKVSNKGLPAPIEKTISKTKGQPREPQVYTLPPSREEMTKNQVSLSCAVKGFYPSDIAVEWESNGQPENNYKTTPPVLDSDGSFFLVSKLTVDKSRWQQGNVFSCSVMHEALHNHYTQKSLSLSPG
B7: Example 8: NRG4 D1G/I26F/P8E, (GGGGS)3 linker, SEQ ID NO: 17, fused to IgG Fc dimer SEQ ID NO: 6 and 7 (protein)
chain 1: GGGGSGGGGSGGGGSGHEEPCGESHKSFCLNGGLCYVIPTFPSPFCRCVENYTGARCEEVFL
chain 2: ECPPCPAPPVAGPSVFLFPPKPKDTLMISRTPEVTCVVVDVSHEDPEVQFNWYVDGVEVHNAKTKPREEQFNSTFRVVSVLTVVHQDWLNGKEYKCKVSNKGLPAPIEKTISKTKGQPREPQVYTLPPSREEMTKNQVSLWCLVKGFYPSDIAVEWESNGQPENNYKTTPPVLDSDGSFFLYSKLTVDKSRWQQGNVFSCSVMHEALHNHYTQKSLSLSPG
chain 3: ECPPCPAPPVAGPSVFLFPPKPKDTLMISRTPEVTCVVVDVSHEDPEVQFNWYVDGVEVHNAKTKPREEQFNSTFRVVSVLTVVHQDWLNGKEYKCKVSNKGLPAPIEKTISKTKGQPREPQVYTLPPSREEMTKNQVSLSCAVKGFYPSDIAVEWESNGQPENNYKTTPPVLDSDGSFFLVSKLTVDKSRWQQGNVFSCSVMHEALHNHYTQKSLSLSPG

For one assay, the target named is T1, human HER2 and HER4 (Homo sapiens, UniProt Q15303).
T1 construct: expressed in transfected cells
Description: Screening by human HER2-HER4 mediated ERK 1/2 phosphorylation in CHO-hHER2-hHER4 (clone 1H6) cells. It counts as cell-based. Conditions: Table 5; Fc variants as 293F supernatants; Examples average of two replicates ± standard deviation. As to the method:
A cell based assay utilizing CHO-K1 cells overexpressing human or rat HER receptors is used to determine activity of NRG4 compounds. CHO-K1 cells (ATCC) are grown in DMEM-F12 3:1 with 5% FBS with 20 mM HEPES, 40 μg/mL L-Proline, lx antibiotics and were split 1:5 every 2-3 days with TripLE Express (Gibco). Cells are transfected with plasmid DNA encoding HER receptors in pairs (hHER2-3, hHER2-4, rHER2-3 and rHER2-4) with Fugene 6 (Promega) according to the manufacturer's instructions. […] Transfected cells are selected with Puromycin (12 ug/ml) and Hygromycin (1 mg/ml) for 3-4 weeks and clonal lines are obtained by limited dilution cloning into 96 well plates. Clonal lines are selected by appropriate gene expression of HER2, HER3 or HER4 by Taqman method. Lines with appropriate receptor expression are confirmed by NRG1 induced phospho-ERK 1/2 responses. Clones are grown up, harvested, aliquoted into cryovials and then frozen under liquid nitrogen for long-term storage.
A phospho-ERK1/2 activity assay is used to determine potencies of NRG4 compounds. The potency of Examples 1-8 and 10 as compared to WT human NRG1 and/or human NRG4 are analyzed in studies measuring stimulation of human HER2-HER4 mediated ERK 1/2 phosphorylation. This assay comprises a CHO-K1 stable line expressing human HER2 and HER4. CHO-hHER2-hHER4 (clone 1H6) cells are routinely cultured in DMEM: F12(3:1), 5% FBS, 40 μg/mL L-Proline, 10 μg/mL puromycin and 1 mg/mL hygromycin at 37° C., 5% CO2. Cells are washed twice with 1×PBS, dissociated with 0.05% trypsin/[…] EDTA and collected by centrifugation at 300×g for 10 m. Cells are re-suspended in maintenance media. 20,000 cells/well, in 30 μL, are seeded into 384 well Poly-D-Lysine cell culture plates (Greiner, Cat No. 781946). Plates are covered with a manufacturer's lid and moved to a 37° C. tissue culture incubator at 5% CO^2, 80%+ humidity and allowed to adhere. After 24 h, media are removed from the plates and replaced with 30 μL serum-free starvation media (Low glucose DMEM with 0.1% BSA) using a Biomek FX liquid handler. Plates are returned to the incubator for 24 h.
hFcNRG4 variants, transiently expressed as 293F supernatants, are prepared in starvation media in a clear 384W plate (Greiner, cat no. 781185) as a 4pt 1:8 serial dilution (dose range averaged between 250 pM to 140000 pM). Media are removed from the cell culture plates and the 30 uL/well prepared variants are stamped into the plates using a Biomek FX liquid handler. Plates are sealed with a foil seal and stimulated for 15 minutes at room temperature on an orbital shaker. Cells are then washed once with 50 uL cold PBS. 30 uL lysis buffer is added to the cells and oscillated for 10 m at RT on an orbital shaker.
Detection of phosphorylation of ERR 1/2 is performed with either an AlphaScreen SureFire phospho-ERK1/2 kit (T202/Y204) (Perkin Elmer, catalog no. TGRES) or an AlphaLISA® SureFire® Ultra™ p ERK1/2 assay kit together with the AlphaScreen Protein. A IgG Detection Kit (Protein-A) (PerkinElmer, catalogue no. 6760617). After lysis of the CHO-K1 cells. 4 μL lysate is transferred to a 384W Alpha Proxiplate (Perkin Elmer, cat no, 6008280) with a 384W Biomek FX. 4 uL positive and negative lysates (Perkin Elmer, TGRES-L) are added to available wells as controls. 5 uL/well acceptor mix (containing anti-phoso-Thr202/Tyr204 antibodies and Protein A conjugated acceptor beads) is added to the plate with a Forumlatrix Mantis. The plate is sealed, spun down for 1 min at 300×g and incubated for 2 hr at room temperature on an orbital shaker. 2 μL/well donor mix (containing strepavidin coated donor beads and biotinylated antibodies to a distal ERK1/2 epitope) is dispensed by Mantis. The plate is sealed, spun down for 1 min at 300×g and incubated for 2 hr at room temperature on an orbital shaker before reading on the Perkin Elmer Envision 2103 Multilabel Reader (HIS Alpha mode, excitation time: 40 ms, total measurement time: 130 ms). […]
In turn, B1 showed an EC50 of 0.29 ± 0.01 nM.

In turn, B2 returned an EC50 of 0.53 ± 0.05 nM.

Consider B3, for which the EC50 amounted to 0.84 ± 0.27 nM.

Regarding B4, it took 2.77 ± 0.39 nM to reach a half-maximal effect (EC50).

Still in this assay, the particulars now being: Table 6; Fc variants as 293F supernatants.
On to B5, for which the midpoint of the response, the EC50, lay at 0.395 nM.

Turning to B6, the EC50 was 0.563 nM.

As to B7, it took 0.403 nM to reach a half-maximal effect (EC50).
